This passage reports Kd and fold change of KD against wild-type MYC(1–88) results from paper PMC8989513.

Holding throughout (assay): BLI
Assay [1] addresses C-terminally biotinylated MYC(1–88).
In assay [2] the target is C-terminally biotinylated MYC(1–88)ΔMB0.
Assay [3] concerns the target MYC(1–88 F23A), C-terminally biotinylated.
In assay [4] the target is MYC(1–88 P21A), C-terminally biotinylated.
Assay [5] deals with MYC(1–88 Y22A), C-terminally biotinylated.
For assay [6], the target named is MYC(1–88 Y24A), C-terminally biotinylated.
Assay [7] concerns the target biotinyl-MB0 peptide (MYC Box 0, aa 16–33).

What is called Kd is the equilibrium constant for the complex coming apart.

A value given as a limit tells only on which side of the number the result lay.

B1: PNUTS(1–148), PNUTS amino-terminal domain (PAD) (domain or fragment)
chain: MGSGPIDPKELLKGLDSFLNRDGEVKSVDGISKIFSLMKEARKMVSRCTYLNILLQTRSPEILVKFIDVGGYKLLNNWLTYSKTTNNIPLLQQILLTLQHLPLTVDHLKQNNTAKLVKQLSKSSEDEELRKLASVLVSDWMAVIRSQS
For B1, the dissociation constant Kd in assay [1] is 3.5 µM; in assay [2], greater than 100 µM; in assay [7], 9.4 µM. The fold change of KD against wild-type MYC(1–88) in assay [3], in assay [4], in assay [5] and in assay [6] was greater than 5 fold each time.
